Experimental data: article PMC5269641

Experiments:
[1] = target: reaction center-light harvesting 1-PufX (RC-LH1-PufX) complex (Rhodobacter sphaeroides) (UniProt P0C0Y7); assay: atomic force microscopy; tapping mode AFM of intact native chromatophore vesicles immobilised on mica; imaging buffer 300 mM KCl/20 mM MOPS pH 7.4, with and without 10 mM MgCl2; proteins in their native membrane
[2] = target: subunit of the light-harvesting 2 (LH2) complex (Rhodobacter sphaeroides); assay: atomic force microscopy; tapping mode AFM of reconstituted flat LH2 membranes (2D crystals) immobilised on a mica substrate, same approach as for chromatophores
[3] = target: subunit of the light-harvesting 2 (LH2) complex (Rhodobacter sphaeroides); assay: as above; remark: listed apart in the source
[4] = target: subunit of the light-harvesting 2 (LH2) complex (Rhodobacter sphaeroides); assay: atomic force microscopy; tapping mode AFM of intact native chromatophore vesicles immobilised on mica; imaging buffer 300 mM KCl/20 mM MOPS pH 7.4, with and without 10 mM MgCl2; proteins in their native membrane
[5] = target: subunit of the light-harvesting 2 (LH2) complex (Rhodobacter sphaeroides); assay: as above; remark: listed apart in the source

Row | Substance | stoichiometry N [1] | stoichiometry N [2] | stoichiometry N [3] | stoichiometry N [4] | stoichiometry N [5]
1 | reaction center-light harvesting 1-PufX (RC-LH1-PufX) complex (from UniProt P0C0Y7 1-260; P13402 1-82) | 2 | – | – | – | –
2 | subunit of the light-harvesting 2 (LH2) complex | – | 9 | 8.3 | 9 | 8.6
